Test results from PMC6258952, “Visualization of Calcium Ion Loss from Rotavirus during Cell Entry” (Journal of Virology, 2018).

Legend:
[1] = target: VP5 CT fragment from sequential chymotrypsin-trypsin digestion of VP4 Rhod5F (rhesus rotavirus (RRV)); assay: SDS-PAGE of unboiled and boiled samples; VP4 469C-Rhod5F digested with chymotrypsin (37°C, 30 min) then trypsin (room temperature, 1 h); reducing sample buffer (200 mM DTT), boiled at 95°C for 3 min or kept at room temperature for 3 min; 5-to-20% gradient gel, UV light and Coomassie blue
[2] = target: T1, wild-type recombinant VP4 labeled with pHrodo Red succinimidyl ester (rhesus rotavirus (RRV), UniProt P12473 1-776, pHrodo Red succinimidyl ester, 1 dye molecule per 2 VP4 monomers (residues not stated)); assay: co-sedimentation; recoating of labeled DLP: 100 mM sodium acetate pH 5.2, VP4 at 0.9 mg/ml (~33-fold excess) 1 h at room temperature, then VP7 in 2.3-fold excess with 1 mM CaCl2 for 1 h; recoated particles separated from excess components by cesium chloride gradient centrifugation; dyes seen on single particles by confocal imaging; conditions: both partners purified
T1 construct: VP4, outer layer spike protein of rhesus rotavirus (RRV), wild type; also called VP4-pHrodo Red; wt VP4; source: Sf9 cells infected with a baculovirus vector, purified (ammonium sulfate, Phenyl HP, HiTrap Q, S200)

[3] = target: T2, VP4 mutated at position 469 from serine to cysteine (rhesus rotavirus (RRV), UniProt P12473 1-776, S469C); assay: as above; conditions: both partners purified
T2 construct: VP4, outer layer spike protein of rhesus rotavirus (RRV), with S469C; Unlabeled during recoating; It was labeled on the purified rcTLP afterwards with DBCO-maleimide and Rhod5F azide; also called VP4 469C; S469C; source: Sf9 cells infected with a baculovirus vector, purified (ammonium sulfate, Phenyl HP, HiTrap Q, S200)

[4] = target: T3, wild-type recombinant VP4 labeled with Atto 565 NHS ester (rhesus rotavirus (RRV), UniProt P12473 1-776, Atto 565 NHS ester, about 1 dye molecule per VP4 monomer (residues not stated)); assay: as above; conditions: both partners purified
T3 construct: VP4, outer layer spike protein of rhesus rotavirus (RRV), wild type; also called VP4-565; rVP4; source: Sf9 cells infected with a baculovirus vector, purified (ammonium sulfate, Phenyl HP, HiTrap Q, S200)

Molecule: VP5 CT fragment from sequential chymotrypsin-trypsin digestion of VP4 Rhod5F (domain or fragment)
- stoichiometry N [1]: 3

B1: Atto 488 NHS ester-labeled VP7 (natural protein)
chain: QNYGINLPITGSMDTAYANSTQEETFLTSTLCLYYPTEAATEINDNSWKDTLSQLFLTKGWPTGSVYFKEYTDIASFSVDPQLYCDYNVVLMKYDATLQLDMSELADLILNEWLCNPMDITLYYYQQTDEANKWISMGSSCTIKVCPLNTQTLGIGCLTTDTATFEEVATAEKLVITDVVDGVNHKLDVTTATCTIRNCKKLGPRENVAVIQVGGSDVLDITADPTTAPQTERMMRINWKKWWQVFYTVVDYVNQIIQAMSKRSRSLNSAAFYYRI
modifications: Atto 488 NHS ester (residues not stated)
notes: VP7, Ca2+-stabilized outer layer protein of rhesus rotavirus (RRV); also called VP7-488
- binding result [2]: binds
- binding result [3]: binds
- binding result [4]: binds
